From patent US7101851 (dated 2006)
Bridges are numbered along the chain shown (N, C = ends). Where no end group is shown, it is not given here.

T1: alpha subunit of the human FcεRI receptor (IgE high affinity receptor), expressed on Chinese hamster ovary … (human, UniProt P12319 26-257)
T1 construct: whole, on cells; also called CHO FcεRI+ cells; FcεRIα
T1 sequence (looked up): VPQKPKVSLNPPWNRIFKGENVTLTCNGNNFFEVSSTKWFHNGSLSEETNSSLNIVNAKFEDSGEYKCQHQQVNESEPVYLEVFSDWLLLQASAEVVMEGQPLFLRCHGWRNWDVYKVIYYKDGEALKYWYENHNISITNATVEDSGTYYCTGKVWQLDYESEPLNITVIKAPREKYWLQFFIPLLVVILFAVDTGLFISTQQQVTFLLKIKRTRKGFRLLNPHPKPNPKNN

B1: IGE037 (peptide)
peptide: ALCPAVCYV-NH2
modifications: disulfide 3-7 (inferred); also: synthesized as monomer, spontaneously formed a dimer
B2: IGE089 (peptide)
peptide: ALCPAVCYV-NH2
modifications: also: antiparallel disulfide-linked homodimer, interchain C3-C7' and C7-C3'
notes: also called antiparallel covalent dimer of IGE037
B3: IGE083 (peptide)
peptide: ALCPAVCYVGGKALCPDVCYV-NH2
modifications: disulfide 7-15, 3-19; N-terminus assumed
SMILES: CC(C)C[C@H](NC(=O)[C@H](C)N)C(=O)N[C@H]1CSSC[C@@H](C(=O)N[C@@H](Cc2ccc(O)cc2)C(=O)N[C@H](C(N)=O)C(C)C)NC(=O)[C@H](C(C)C)NC(=O)[C@H](CC(=O)O)NC(=O)[C@@H]2CCCN2C(=O)[C@@H]2CSSC[C@H](NC(=O)[C@H](C(C)C)NC(=O)[C@H](C)NC(=O)[C@@H]3CCCN3C1=O)C(=O)N[C@@H](Cc1ccc(O)cc1)C(=O)N[C@@H](C(C)C)C(=O)NCC(=O)NCC(=O)N[C@@H](CCCCN)C(=O)N[C@@H](C)C(=O)N[C@@H](CC(C)C)C(=O)N2
B4: IGE119 (peptide)
peptide: NGCPGWCYVGGKALCPDVCYV-NH2
modifications: disulfide 7-15, 3-19; N-terminus assumed
SMILES: CC(C)C[C@@H]1NC(=O)[C@H](C)NC(=O)[C@H](CCCCN)NC(=O)CNC(=O)CNC(=O)[C@H](C(C)C)NC(=O)[C@H](Cc2ccc(O)cc2)NC(=O)[C@@H]2CSSC[C@H](NC1=O)C(=O)N1CCC[C@H]1C(=O)N[C@@H](CC(=O)O)C(=O)N[C@@H](C(C)C)C(=O)N[C@H](C(=O)N[C@@H](Cc1ccc(O)cc1)C(=O)N[C@H](C(N)=O)C(C)C)CSSC[C@H](NC(=O)CNC(=O)[C@@H](N)CC(N)=O)C(=O)N1CCC[C@H]1C(=O)NCC(=O)N[C@@H](Cc1c[nH]c3ccccc13)C(=O)N2
B5: IGE130 (peptide)
peptide: ALCPDVCYVGGKVQCPHFCYV-NH2
modifications: disulfide 7-15, 3-19; N-terminus assumed
SMILES: CC(C)C[C@H](NC(=O)[C@H](C)N)C(=O)N[C@H]1CSSC[C@@H](C(=O)N[C@@H](Cc2ccc(O)cc2)C(=O)N[C@H](C(N)=O)C(C)C)NC(=O)[C@H](Cc2ccccc2)NC(=O)[C@H](Cc2c[nH]cn2)NC(=O)[C@@H]2CCCN2C(=O)[C@@H]2CSSC[C@H](NC(=O)[C@H](C(C)C)NC(=O)[C@H](CC(=O)O)NC(=O)[C@@H]3CCCN3C1=O)C(=O)N[C@@H](Cc1ccc(O)cc1)C(=O)N[C@@H](C(C)C)C(=O)NCC(=O)NCC(=O)N[C@@H](CCCCN)C(=O)N[C@@H](C(C)C)C(=O)N[C@@H](CCC(N)=O)C(=O)N2
B6: IGE132 (peptide)
peptide: VQCPHFCYVGGHALCPDVCYVGR
modifications: not fully specified (bridges); cysteine pairing not given here
notes: produced as Z-domain fusion in E. coli and released with trypsin
B7: IGE142 (peptide)
peptide: VQCAHFCYVGGHALCPDVCYVGR
modifications: disulfide (positions not given here)
notes: as for B6
B8: IGE145 (peptide)
peptide: VQCPDFCYVGGHALCPDVCYVGR
modifications: not fully specified; cysteine pairing not given here
notes: as for B6

Target: T1, alpha subunit of the human FcεRI …
Assay: inhibition of 125I-IgE binding to CHO cells expressing human FcεRI alpha; competitor IgE
Method: To determine the ability of peptides to inhibit IgE binding to FcεRI, a cell-based binding assay was used with radiolabeled IgE. Chinese hamster ovary cells expressing the alpha subunit of the human FcεRI receptor were cultured overnight in Falcon 96 well microtiter plates at a concentration of 5 ×10^4 cells per well. The following day the cells were rinsed three times with PBS and then once with F12/DMEM. Peptide stocks were reconstituted in 100 mM Hepes buffered water, pH 7.2, at a concentration of 5 mg/mL. Working concentrations of the peptide were diluted in assay buffer (see below). 75 uL of a desired concentration of peptide was added to the top row of a separate 96 well microtiter plate and serially diluted 1:3 in 50 uL of the assay buffer (F12/DMEM, 1% BSA, 0.05% NaN_3 and 0.025 mM Hepes pH 7.2). Starting concentrations ranged from 50–500 uM. Next, 50 uL of the diluted peptide was transferred to the 96 microtiter well plate containing a monolayer of CHO FcεRI+ cells. […] Cells were […]

| Binder | IC50 [nM] |
| --- | --- |
| B1 | 251000 |
| B2 | 64000 |
| B3 | 1100 |
| B4 | 1400 |
| IVCPRLCYVGGKALCPDVCYV-NH2 (not fully specified (bridges); cysteine pairing not given here) [IGE120] | 290 |
| IVCARLCYVGGKALCPDVCYV-NH2 (not fully specified (bridges); cysteine pairing not given here) [IGE127] | 13000 |
| VVCPNMCYVGGKALCPDVCYV-NH2 (not fully specified (bridges); cysteine pairing not given here) [IGE121] | 340 |
| VQCPHFCYVGGKALCPDVCYV-NH2 (not fully specified (bridges); cysteine pairing not given here) [IGE122] | 170 |
| VQCPHFCYVGGKALCPDKCYV-NH2 (cysteine pairing not given here) [IGE147] | 158 |
| VQCPHFCYVGGKALCPDKCYT-NH2 (cysteine pairing not given here) [IGE148] | 94 |
| VQCPHFCYVGGKALCPDPCYV-NH2 (cysteine pairing not given here) [IGE149] | 166 |
| VQCPHFCYVGGKALCPDVCDV-NH2 (not fully specified (bridges); cysteine pairing not given here) [IGE150] | 1230 |
| VKCPSLCYVGGKALCPDVCYV-NH2 (not fully specified (bridges); cysteine pairing not given here) [IGE123] | 180 |
| VPCPELCYVGGKALCPDVCYV-NH2 (not fully specified (bridges); cysteine pairing not given here) [IGE124] | 890 |
| VTCPRWCYVGGKALCPDVCYV-NH2 (cysteine pairing not given here) [IGE126] | 380 |
| KSCPLWCYVGGKALCPDVCYV-NH2 (not fully specified (bridges); cysteine pairing not given here) [IGE128] | 240 |
| B5 | 250 |
| VQCPHFCYVGGKVQCPHFCYV-NH2 (not fully specified (bridges); cysteine pairing not given here) [IGE131] | 2300 |
| B6 | 80 |
| B7 | 1000 |
| B8 | 117 |
| VQCPHFCYELDYELCPDVCYV-NH2 (not fully specified (bridges); cysteine pairing not given here) [IGE134] | 32 |
| VQCPHFCYELDYELCPDKCYT-NH2 (not fully specified (bridges); cysteine pairing not given here) [IGE173] | 61 |
| VQCPHFCYELDYELCPWKCYT-NH2 (not fully specified (bridges); cysteine pairing not given here) [IGE174] | 172 |
| VQCPHFCYELDYELCPWVCYV-NH2 (not fully specified (bridges); cysteine pairing not given here) [IGE175] | 57 |
| VQCPDFCYELDYELCPDVCYV-NH2 (not fully specified (bridges); cysteine pairing not given here) [IGE190] | 58 |
| VQCPHFCYFGGAELCPDVCYV-NH2 (cysteine pairing not given here) [IGE135] | 47 |
| VQCPHFCYFGGAELCPGVCYV-NH2 (cysteine pairing not given here) [IGE136] | 119 |
| VQCPDFCYFGGAELCPDVCYV-NH2 (not fully specified (bridges); cysteine pairing not given here) [IGE191] | 210 |
| IVCPRLCYELDYELCPDVCYV-NH2 (cysteine pairing not given here) [IGE141] | 131 |
